# Measurements taken from patent US11639389B2.
# Molecular target: Purified Fc fusion protein of Human CTLA4 (human)
# Assay: BLI (Fortebio), CTLA4-Fc immobilized by amine reactive chemistry
substance,measurement,value
Anti CTLA4 IgG (BioLegend A3.B10.G1) (antibody),Kd,2 nM
